# B1: Serine/threonine-protein kinase VRK1 (Homo sapiens), Q99986 (parent)
# chain: MPRVKAAQAGRQSSAKRHLAEQFAVGEIITDMAKKEWKVGLPIGQGGFGCIYLADMNSSESVGSDAPCVVKVEPSDNGPLFTELKFYQRAAKPEQIQKWIRTRKLKYLGVPKYWGSGLHDKNGKSYRFMIMDRFGSDLQKIYEANAKRFSRKTVLQLSLRILDILEYIHEHEYVHGDIKASNLLLNYKNPDQVYLVDYGLAYRYCPEGVHKEYKEDPKRCHDGTIEFTSIDAHNGVAPSRRGDLEILGYCMIQWLTGHLPWEDNLKDPKYVRDSKIRYRENIASLMDKCFPEKNKPGEIAKYMETVKLLDYTEKPLYENLRDILLQGLKAIGSKDDGKLDLSVVENGGLKAKTITKKRKKEIEESKEPGVEDTEWSNTQTEEAIQTRSRTRKRVQK
# Variants of: B1
# Conditions: with plk3_human PLK3, Q9H4B4
# Chain of plk3_human PLK3, Q9H4B4 (Q9H4B4 whole entry, looked up): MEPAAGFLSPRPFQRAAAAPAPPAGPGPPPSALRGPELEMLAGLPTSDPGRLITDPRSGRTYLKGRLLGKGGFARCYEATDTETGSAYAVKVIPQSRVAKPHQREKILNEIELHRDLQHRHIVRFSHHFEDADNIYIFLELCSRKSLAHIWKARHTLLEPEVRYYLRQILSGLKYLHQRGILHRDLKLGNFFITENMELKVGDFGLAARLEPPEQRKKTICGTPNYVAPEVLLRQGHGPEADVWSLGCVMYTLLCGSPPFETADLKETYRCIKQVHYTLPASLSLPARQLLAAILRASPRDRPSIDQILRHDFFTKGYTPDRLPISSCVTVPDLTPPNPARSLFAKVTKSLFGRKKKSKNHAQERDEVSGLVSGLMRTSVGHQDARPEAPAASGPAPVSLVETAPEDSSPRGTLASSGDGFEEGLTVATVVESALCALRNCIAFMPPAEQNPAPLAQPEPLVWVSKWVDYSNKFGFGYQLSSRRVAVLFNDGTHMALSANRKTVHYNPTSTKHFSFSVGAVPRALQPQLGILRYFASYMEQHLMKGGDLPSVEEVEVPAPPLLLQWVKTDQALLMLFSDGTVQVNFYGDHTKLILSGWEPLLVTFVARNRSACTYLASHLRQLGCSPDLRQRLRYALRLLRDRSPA
row,effect of a mutation on the interaction,Variant
1,disrupting interaction,MPRVKAAQAGRQSSAKRHLAEQFAVGEIITDMAKKEWKVGLPIGQGGFGCIYLADMNSSESVGSDAPCVVKVEPSDNGPLFTELKFYQRAAKPEQIQKWIRTRKLKYLGVPKYWGSGLHDKNGKSYRFMIMDRFGSDLQKIYEANAKRFSRKTVLQLSLRILDILEYIHEHEYVHGDIKASNLLLNYKNPDQVYLVDYGLAYRYCPEGVHKEYKEDPKRCHDGTIEFTSIDAHNGVAPSRRGDLEILGYCMIQWLTGHLPWEDNLKDPKYVRDSKIRYRENIASLMDKCFPEKNKPGEIAKYMETVKLLDYTEKPLYENLRDILLQGLKAIGSKDDGKLDLAVVENGGLKAKTITKKRKKEIEESKEPGVEDTEWSNTQTEEAIQTRSRTRKRVQK [S342A]

# — IntAct's records for PubMed 19103756
